Experimental data reported in the supplement of paper PMC9170038.

System: MS2 coat protein
Assay: apparent KD of MS2 coat protein; designed switch direction (-1 OFF switch, 1 ON switch): 1; higher = weaker reporter binding
Method in brief: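 Designed RNA switches with common flanks were transcribed on Illumina chips by stalled E. coli RNA polymerase and titrated with SNAP-549-labelled MS2 coat protein, from 0.7 or 1.5 nM doubling to 3 µM, in Tris-HCl pH 7.5 buffer with KCl, MgCl2, BSA, DTT, tRNA and Tween-20. Steps lasted 0.8–1.5 h (lowest) to 10–20 min (highest). Titrations ran without input, with 200 uM small-molecule ligand, or with an oligonucleotide input. Normalised cluster fluorescence was curve-fitted, and apparent KD is the per-design median over clusters.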

[1] = Eterna round: R95, input ligand: FMN 200 uM
[2] = Eterna round: R95, input ligand: microRNA oligo, concentration not stated
[3] = Eterna round: R95, input ligand: none
[4] = input ligand: microRNA oligo, concentration not stated

| Sequence | apparent KD of MS2 coat protein [1] [nM] | apparent KD of MS2 coat protein [2] [nM] | apparent KD of MS2 coat protein [3] [nM] | apparent KD of MS2 coat protein (input ligand: FMN 200 uM) [nM] | apparent KD of MS2 coat protein [4] [nM] | apparent KD of MS2 coat protein (input ligand: none) [nM] |
| --- | --- | --- | --- | --- | --- | --- |
| GGAGAACAUGAGGAUCACCCAUGUAAGAGAGUUGUAGGAUAUGUGAGGAGCAGAGGAUGAACAGAAGGACAUGGAG [JR_SS!_Sub070] (puzzle: Same State 1) | 42 | 49.3 | 56.4 | – | – | – |
| GCUCGGCUGAUGGCCCACAUGAGGAUCACCCAUGUGACUGGGCAGGAUAUCUAGAUUCAGGAUGUAGAGAAGGGCCUGCCGAGC [SameState NG3 #40] (Eterna round: R96, puzzle: Same State NG 3) | – | – | – | 331 | 77.3 | 188 |
| CUACGCGCCGCAGGAUAUGCCGACCCGUGUUGAGCAGAAGGGCGCAACAUGAGGAUCACCCAUGUUGAAAGAGCGCAAAAUUAA [Zaesre] (Eterna round: R96, puzzle: Same State NG 1) | – | – | – | 11.1 | 12.5 | 16 |
| GGACCCUUCGGAGGAUAUUCUCAGUAACAGUAAGAAGAAGGCCGUAAGUCAUACGCGCGUUACAUGAGGAUCACCCAUGUGUGG [Eternabot solution 47] (Eterna round: R96, puzzle: Same State NG 1) | – | – | – | 149 | 150 | 333 |
| GCUAGAAUAAACGCCUACAUGAGGAUCACCCAUGUAUGUAGGCAGGAUAUCGUAUGCAAAGCAUACGAGAAGGGCCUUACUAGC [Mat - Same State NG 3 - JL Mod - D33] (Eterna round: R96, puzzle: Same State NG 3) | – | – | – | 25.7 | 27.7 | 43.4 |
| UGUUGUAUUACAGGAUAUCUAUGAUUUUUGUUUAGAGAAGGGUAUUCACAUGAGGAUCACCCAUGUAUAUACGAGGAAGUUGUG [JMF's solution 66] (Eterna round: R96, puzzle: Same State NG 1) | – | – | – | – | 42.4 | – |
| CUGAAAUGUCAAGGAUAUCACGUCGAUUAGACGUGAGAAGGUGAUCUGCACAUGAGGAUCACCCAUGUGUUACAUGGAAAUCAG [Brourd's SSNG1/1-A2 mod 14] (Eterna round: R96, puzzle: Same State NG 1) | – | – | – | 312 | 581 | 964 |
| GGAAUAUUUACAGGAUAUCAUUUGUAAAUUCGAUGAGAAGGGUAGAUGUCUUACACGACUUGUUACAUGAGGAUCACCCAUGUU [SameState NG1 #8] (Eterna round: R96, puzzle: Same State NG 1) | – | – | – | – | 34 | – |
| GAGAAGAGGGACAAGGAUAUGUCAGGAGAGACAUGAGGAUCACCCAUGUAGAGGUUGGAGGAGAGACAGAAGGUGUCGAGAGCGA [JR_SS2_Sub014] (puzzle: Same State 2) | 123 | 143 | 361 | – | – | – |
| AUAGUUGCCGAAGGAUAUGAUGAGGAUCACCCAUCAGAAGGUCGGCUAUUGGGUGGACAUGAGGAUCACCCGUGUUCUUUGGUC (Eterna round: R96, puzzle: Same State NG 1) | – | – | – | 30.6 | 22.5 | 32.3 |
| GGAGCCAAGGCAGGAUAUUCAUUUAAAUAAACAUGAGGAUCACCCAUGUAGGCCAGAAGGCCUUGGGAGAAGGGCCAUGGCUCG [Xeonanis - 13 mod7] (Eterna round: R96, puzzle: Same State NG 2) | – | – | – | 17.7 | 72.8 | 88.1 |
| AGUCGAGCCUGAGCUCGACAAAAGCAUGUACAUGAGGAUCACCCAUGUCAUGUACAAGCUUUUUGCUCGUCUUAAAA [Mat - hsa-mir-208a - Mod of JL - D19] (puzzle: Sensor for hsa-mir-208a) | 238 | 13.5 | 264 | – | – | – |
| CGCAACGGCUGAGGAUAUGUCAACACGGGACGGGCAGAAGGUAGCAACCACCCACAUGAGGAUCACCCAUGUAUCCAAAUUCAC [Eternabot solution 38] (Eterna round: R96, puzzle: Same State NG 1) | – | – | – | 48.9 | 41.5 | 42.3 |
